Measured values from patent US20260055369A1, “METHOD FOR GENERATING CELLS OF THE T CELL LINEAGE WITH ENGINEERING BROADLY REACTIVE HUMAN NOTCH LIGAND” (H. Lee Moffitt Cancer Center and Research Institute, Inc., priority 2022, published 2026).
Residue numbers refer to the chain shown, from its start. Read-outs that look alike come from different tables or passages of the source.

B1: Delta^MAX: engineered human DLL4 consensus variant with 10 mutations combining DLL4.v1 and DLL4.v2 mutations; sequence matches SEQ ID NO: 4/10 (protein)
chain: SSVFQLQLQEFINERGVLASGRPCEPGCRTFFRVCLKHFQAVVSPGPCTFGTVSTPVLGTNSFAVRDDSSGGGRNPLQLPLNFTWPGTFSLIIEAWHAPGDDLRPEALPPDALISKFAIQGSLAVGQNWLLDEQTSTLTRLRYSYRVICSDNYYGDNCSRLCKKRNDYFGHYVCQPDGNPSCLPGWTGEYCQQPICLSGCHEQNGYCSKPAECLCRPGWQGRLCNECIPHPGCRHGTCSTPWQCLCDEGWGGLYCDQDLNYCTHHSPCKNGATCRNSGPRSYTCTCRPGYTGVDCELELSECDSNPCRNGGSCKDQEDGYHCLCPPGYYGLHCEHSTLSCADSPCFNGGSCRERNQGANYACECPPNFTGSNCE
B2: WT DLL4: human wild-type Delta-like 4 (N-EGF5, residues 27-400), SEQ ID NO: 1 (protein)
chain: B1 chain with S2G, L81F, F117I, Y168H, P180L, P231N, L245T, Y254F, R275S, P279Q

Assays:
Notch3 = experiment: U2OS luciferase reporter assay, ligands on streptavidin plates; assay type: cell-based, human; details: 50 nM immobilized
Chain of Notch3 (Q9UM47 197-505 limits assumed): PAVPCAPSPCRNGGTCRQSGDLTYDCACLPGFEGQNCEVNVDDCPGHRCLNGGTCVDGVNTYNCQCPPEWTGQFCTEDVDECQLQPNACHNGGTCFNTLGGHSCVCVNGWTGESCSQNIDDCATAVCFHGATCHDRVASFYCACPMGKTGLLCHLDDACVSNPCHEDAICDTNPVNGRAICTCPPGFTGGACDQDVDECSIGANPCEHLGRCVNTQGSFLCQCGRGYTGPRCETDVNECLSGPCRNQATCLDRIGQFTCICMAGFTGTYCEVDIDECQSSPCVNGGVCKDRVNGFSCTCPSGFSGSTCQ
Procedure: For U2OS reporter cells, approximately 5×10E5 cells were plated into 6-well plates (Falcon) and let to adhere overnight at 37° C., 5% CO2 in DMEM media (Cytiva). On day two, media was replaced with serum-free DMEM and cells transfected with luciferase vectors. Cationic lipoplexes were generated for 15 min at room temperature by mixing 10 μL of Lipofectamine 2000 (Invitrogen), 2.5 μg of Gal4-firefly luciferase reporter, and 50 ng of pRL-TK Renilla luciferase vector as internal control (ratio 1:5, Lipo:DNA). On day three, streptavidin plates were coupled with DLL4 ligands like described above using 10-fold serial dilutions starting at 50 nM, and transfected U2OS cells were detached with Trypsin-EDTA, washed with DPBS, and counted in the microscope. Twenty-thousand reporter cells were added to wells using 200 μL of DMEM media containing 2 μg/mL of doxycycline (Sigma) to induce Notch-Gal4 expression. Next, signaling plates were incubated for 24 hours at 37° C. and 5% CO2. On day four, luciferase firefly and Renilla signals were determined with Dual-Glo luciferase assay system (Promega) using a GloMax luminometer (Promega). A luminescence ratio firefly:Renilla was determined for every well and normalized to the signal of a non-related control protein (PA domain of RNF128). Notch activation is represented as the mean fold-change over the control±s.d. of three independent biological replicates.

Notch1 = experiment: Notch inhibition assay with soluble antagonists and WT DLL4 coated plates (CHO-K1 N1-Gal4); assay type: cell-based
Chain of Notch1 (P46531 19-1664 limits assumed): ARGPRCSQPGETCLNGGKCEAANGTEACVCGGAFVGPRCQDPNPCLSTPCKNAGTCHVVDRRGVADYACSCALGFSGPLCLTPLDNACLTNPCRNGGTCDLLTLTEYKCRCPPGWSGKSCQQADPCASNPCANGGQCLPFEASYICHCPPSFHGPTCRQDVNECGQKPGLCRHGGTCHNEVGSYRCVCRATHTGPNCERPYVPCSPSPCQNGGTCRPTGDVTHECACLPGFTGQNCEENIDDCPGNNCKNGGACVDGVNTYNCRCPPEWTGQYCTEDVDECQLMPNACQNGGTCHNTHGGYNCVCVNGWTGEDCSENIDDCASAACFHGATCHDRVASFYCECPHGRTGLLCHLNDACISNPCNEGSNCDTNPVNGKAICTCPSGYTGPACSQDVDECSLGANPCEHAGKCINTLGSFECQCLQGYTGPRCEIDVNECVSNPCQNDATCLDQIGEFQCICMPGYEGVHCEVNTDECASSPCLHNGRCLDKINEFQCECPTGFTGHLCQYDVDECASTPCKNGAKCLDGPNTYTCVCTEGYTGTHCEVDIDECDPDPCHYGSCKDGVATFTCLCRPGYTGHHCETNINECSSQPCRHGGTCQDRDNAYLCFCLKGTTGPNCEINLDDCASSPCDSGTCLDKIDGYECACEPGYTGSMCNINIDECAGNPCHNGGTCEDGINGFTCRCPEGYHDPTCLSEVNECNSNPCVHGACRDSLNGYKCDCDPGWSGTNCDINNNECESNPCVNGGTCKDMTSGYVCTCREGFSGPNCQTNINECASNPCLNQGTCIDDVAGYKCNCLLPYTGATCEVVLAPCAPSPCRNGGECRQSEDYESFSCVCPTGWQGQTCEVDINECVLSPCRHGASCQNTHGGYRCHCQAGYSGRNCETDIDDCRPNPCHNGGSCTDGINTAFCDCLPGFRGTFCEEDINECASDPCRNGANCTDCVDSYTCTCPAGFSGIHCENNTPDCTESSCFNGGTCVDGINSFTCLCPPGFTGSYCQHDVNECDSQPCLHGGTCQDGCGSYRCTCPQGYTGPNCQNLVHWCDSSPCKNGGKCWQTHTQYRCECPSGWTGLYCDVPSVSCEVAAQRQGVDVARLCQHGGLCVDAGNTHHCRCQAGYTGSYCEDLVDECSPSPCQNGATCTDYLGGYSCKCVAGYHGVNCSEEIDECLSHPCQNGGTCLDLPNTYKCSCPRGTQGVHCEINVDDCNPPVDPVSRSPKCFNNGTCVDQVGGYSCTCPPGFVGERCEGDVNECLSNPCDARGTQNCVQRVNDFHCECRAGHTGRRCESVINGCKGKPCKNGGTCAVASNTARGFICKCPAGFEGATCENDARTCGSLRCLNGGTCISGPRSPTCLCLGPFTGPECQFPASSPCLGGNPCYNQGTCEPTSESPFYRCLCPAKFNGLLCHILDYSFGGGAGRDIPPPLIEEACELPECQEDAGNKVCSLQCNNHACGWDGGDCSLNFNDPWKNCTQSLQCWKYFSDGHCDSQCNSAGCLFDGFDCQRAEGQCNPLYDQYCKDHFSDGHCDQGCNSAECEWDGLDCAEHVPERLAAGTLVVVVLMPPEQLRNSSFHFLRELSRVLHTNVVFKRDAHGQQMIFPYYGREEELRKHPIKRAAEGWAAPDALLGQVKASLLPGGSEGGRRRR
Chain of Notch1 (P46531 1665-1756 limits assumed): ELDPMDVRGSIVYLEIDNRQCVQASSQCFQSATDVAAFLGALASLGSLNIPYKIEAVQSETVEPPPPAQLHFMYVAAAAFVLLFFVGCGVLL
Procedure: For CHO-K1 N1-Gal4 reporter cells, on day one, biotinylated WT DLL4 was pre-coated in 96-well plates at 50 nM following the same protocol described above. Next, CHO-K1 N1-Gal4 cells were detached with trypsin-EDTA, washed, and diluted at 200,000 cells/mL in α-MEM media. Ten-fold serial dilutions of non-biotinylated DLL4 ligands (N-EGF5) were prepared in DPBS starting at 600 nM. Next, soluble inhibitors were mixed in ratio 1:1 with CHO-K1 N1-Gal4 200,000 cells/mL stocks for 15 min at room temperature to pre-block Notch receptors. Two hundred microliters of inhibition reactions containing 20,000 reporter cells were added to WT DLL4-coated wells, and plates incubated for 24 hours at 37° C. and 5% CO2. When DAPT (gamma-secretase inhibitor, Sigma) and BB-94 (ADAM metalloprotease inhibitor, Sigma) were used, stock solutions were prepared at 100 μM in 8% DMSO. Appropriate DMSO controls were included to test Notch activation and cell viability. Final DMSO concentration in the experiment was kept below 1%. For comparisons of Delta^MAX with DAPT and BB-94, soluble inhibitors were serially diluted in DPBS using 9-folds, incubated with CHO-K1 N1-Gal4 reporter cells, and added to wells as described above. On day two, assay plates were washed with 200 μL of DPBS, CHO-K1 N1-Gal4 cells detached with trypsin-EDTA, quenched with 200 μL of α-MEM media, and Notch activation measured by flow cytometry (BD Accuri C6 Plus). The data represent the mean fluorescent intensity as percentage of Notch activation, relative to Notch activation in the absence of inhibitors±s.d. of three independent biological replicates.

[1] = tested on: hPSC-derived neural progenitors; experiment: Differentiation of hPSC-derived neural progenitors into neurons (qPCR markers); assay type: cell-based, human; details: for neural progenitor marker SOX2 expression / neuronal markers (MAPT, SNAP25, DCX, VGLUT2, TBR1) expression: soluble protein 10, 100, 1,000 nM, day 8-14, qPCR
Procedure: Neural differentiation of hPSCs was performed in two separate phases over 14 days. In the first phase, to differentiate hPSCs into neural progenitors for 7 days, a modification of a previously-reported method was used. However, in this study, differentiation conducted in Chemically Defined Media 2 (CDM2) media, whose composition has been described previously: 50% IMDM+GlutaMAX (Thermo Fisher)+50% F12+GlutaMAX (Thermo Fisher)+1 mg/mL polyvinyl alcohol (Sigma)+1% v/v chemically defined lipid concentrate (Thermo Fisher)+450 μM 1-thioglycerol (Sigma)+0.7 μg/mL recombinant human insulin (Sigma)+15 μg/mL human transferrin (Sigma)+1% v/v penicillin/streptomycin (Thermo Fisher). To create CDM2, polyvinyl alcohol was brought into suspension by gentle warming and magnetic stirring, and the media was sterilely filtered (through a 0.22 μm filter) prior to use. Throughout the first 7 days, differentiation media was changed every 24 hours. The second phase was to differentiate hPSC-derived neural progenitors into neurons for 7 days, from the day 8-14 interval. Neuronal differentiation media was modified from a previously-reported method^9. From day 8-14, cells were differentiated in BDNF (20 ng/ml, PeproTech), GDNF (20 ng/ml, PeproTech), Forskolin (10 μM, Tocris), 2-Phospho-L-ascorbic acid (0.2 mM, Sigma-Aldrich), with the basal media compositions varying depending on the day of differentiation. On day 8, 25% Neurobasal media+75% CDM2 media was used; on day 9, 50% Neurobasal media+50% CDM2 media was used; on day 10, 75% Neurobasal media+25% CDM2 media was used; on days 11-14, 100% Neurobasal media was used. The composition of Neurobasal media was: Neurobasal basal media (Thermo Fisher)+1% v/v N2 (Thermo Fisher)+2% v/v B27 (Thermo Fisher)+1% v/v penicillin/streptomycin (Thermo Fisher), which was filtered through a sterilizing 0.22 μM filter before use. In summary, starting on day 8 of differentiation, Neurobasal media was added in an increasing ¼th increment on a daily basis. However, to emphasize, throughout the entire day 8-14 interval, cells were exposed to the same concentration of neuronal differentiation signals (BDNF, GDNF, Forskolin and 2-Phospho-L-ascorbic acid), although different basal medias were used on different days.
To test the effect of Notch signaling on neuronal differentiation, starting on day 8, hPSC-derived neural progenitors were treated with the aforementioned neuronal differentiation signals in the presence or absence of soluble Delta^MAX (0-1,000 nM), soluble wild-type DLL4 (0-1,000 nM), or DAPT (10,000 nM, Tocris).
After differentiation of hPSCs into neurons as described above, gene expression was analyzed using RNA extraction, reverse transcription, and quantitative PCR (qPCR) as previously described. First, cells were lysed with RNeasy Lysis Buffer (Qiagen) and stored at −20° C. Cell lysates were then thawed, and RNA was extracted using the RNeasy Mini Plus Kit (Qiagen) as per the manufacturer's instructions and dissolved in H2O. Next, 300 ng of RNA was reverse transcribed into complementary DNA (cDNA) using the High-Capacity cDNA Reverse Transcription Kit (Applied Biosystems) according to the manufacturer's protocol. Total cDNA was diluted 1:20 in H2O and qPCR was performed with the SensiFAST SYBR Lo-ROX Kit (Bioline) using 10 μL qPCR reactions per well in a 384-well plate. Each individual reaction contained 5.0 μL 2× SensiFAST SYBR qPCR Master Mix+4.6 μL cDNA+0.4 μL of 10 μM primer stock (5 μM forward+5 μM reverse primers). […]

| Molecule | increase in Notch3 signaling vs WT DLL4 (Notch3) | IC50 (Notch1; comparison with DAPT and BB-94, plates coated with 50 nM WT DLL4, FIG. 4B, read-out: IC50 for inhibition of Notch1 activation) | potency relative to BB-94 (Notch1; ratio of IC50) | potency relative to DAPT (Notch1; ratio of IC50) | IC50 (Notch1; soluble ECD, plates coated with 50 nM WT DLL4, 24 hours, FIG. 4A, read-out: IC50 for inhibition of Notch1 signaling) | neuronal differentiation compared with 10 μM of DAPT ([1]; 1 μM soluble protein) | neural progenitor marker SOX2 expression [1] | neuronal markers (MAPT, SNAP25, DCX, VGLUT2, TBR1) expression [1] | reduction of reporter activity (Notch1; soluble, highest concentration tested (300 nM)) |
| --- | --- | --- | --- | --- | --- | --- | --- | --- | --- |
| B1 | 3 fold | 1 nM | 1,000 fold | 40 fold | 0.6 nM | comparable to, if not superior to | repressed | sharply increased |  |
| B2 |  |  |  |  |  |  | failed to upregulate neuronal markers or to repress neural progenitor markers | failed to upregulate neuronal markers | ~25% |
